Substitutions are numbered along the chain they refer to. Names may count otherwise.
B1: CD3 antibody VH-Y61C PEG20K conjugate after activation (Table 3) (antibody, V domains shown)
VH: EVQLVESGGGLVQPGGSLRLSCAASGFTFSTYAMNWVRQAPGKGLEWVGRIRSKYNNYATCYADSVKDRFTISRDDSKNSLYLQMNSLKTEDTAVYYCARHGNFGNSYVSWFAYWGQGTLVTVSS
VL: QTVVTQEPSLTVSPGGTVTLTCRSSTGAVTTSNYANWVQQKPGQAPRGLIGGTNKRAPGVPARFSGSLLGDKAALTLLGAQPEDEAEYFCALWYSNLWVFGGGTKLTVL
modifications: Cys 61: PEG20K blocker released by activation (cleavage of the linker peptide); what remains on Cys 61 is not stated
B2: CD3 antibody VH-Y61C PEG5K conjugate after activation (Table 3) (antibody, V domains shown)
VH: B1 VH
VL: B1 VL
modifications: Cys 61: PEG5K blocker released by activation (cleavage of the linker peptide); what remains on Cys 61 is not stated
B3: CD3 antibody VH-Y61C PEG40K conjugate after activation (Table 3) (antibody, V domains shown)
VH: B1 VH
VL: B1 VL
modifications: Cys 61: PEG40K blocker released by activation (cleavage of the linker peptide); what remains on Cys 61 is not stated
B4: CD3 antibody VH-Y61C PEG10K conjugate after activation (Table 3) (antibody, V domains shown)
VH: B1 VH
VL: B1 VL
modifications: Cys 61: PEG10K blocker released by activation (cleavage of the linker peptide); what remains on Cys 61 is not stated
B5: CD3 antibody VH-Y61C conjugated through the cleavable linker peptide with R1 = PEG20K (Table 3) (antibody, V domains shown)
VH: B1 VH
VL: B1 VL
modifications: Cys 61 conjugated with cleavable linker peptide P carrying blocker PEG20K
notes: may be the same molecule as m19 (same value 400) or as CD3-Her2+20k; also called VH-61 Y61C PEG20K
B6: CD3 antibody VH-Y61C conjugated through the cleavable linker peptide with R1 = PEG40K (Table 3) (antibody, V domains shown)
VH: B1 VH
VL: B1 VL
modifications: Cys 61 conjugated with cleavable linker peptide P carrying blocker PEG40K
notes: also called VH-61 Y61C PEG40K
B7: CD3 antibody VH-Y61C conjugated through the cleavable linker peptide with R1 = PEG10K (Table 3) (antibody, V domains shown)
VH: B1 VH
VL: B1 VL
modifications: Cys 61 conjugated with cleavable linker peptide P carrying blocker PEG10K
notes: also called VH-61 Y61C PEG10K
B8: CD3 antibody VH-Y61C conjugated through the cleavable linker peptide with R1 = PEG5K (Table 3) (antibody, V domains shown)
VH: B1 VH
VL: B1 VL
modifications: Cys 61 conjugated with cleavable linker peptide P carrying blocker PEG5K
notes: also called VH-61 Y61C PEG5K
B9: anti-CD3 antibody mutant VH-Y61C conjugated with Molecule I (+20K) (antibody, V domains shown)
VH: B1 VH
VL: B1 VL
modifications: Cys 61 conjugated with Molecule I (+20K)
notes: also called VH-61 Y61 (+20K)
B10: anti-CD3 antibody mutant VL-W93C conjugated with Molecule I (+20K) (antibody, V domains shown)
VH: B1 VH with C61Y
VL: B1 VL with W93C
modifications: Cys 93 conjugated with Molecule I (+20K)
notes: also called VL-93 W93 (+20K)
B11: anti-CD3 antibody mutant VL-N96C conjugated with Molecule I (+20K) (antibody, V domains shown)
VH: B1 VH with C61Y
VL: B1 VL with N96C
modifications: Cys 96 conjugated with Molecule I (+20K)
notes: also called VL-96 N96 (+20K)
B12: anti-CD3 antibody mutant VL-N54C conjugated with Molecule I (+20K) (antibody, V domains shown)
VH: B1 VH with C61Y
VL: B1 VL with N54C
modifications: Cys 54 conjugated with Molecule I (+20K)
notes: also called VL-54 N54 (+20K)
B13: anti-CD3 antibody mutant VL-K55C conjugated with Molecule I (+20K) (antibody, V domains shown)
VH: B1 VH with C61Y
VL: B1 VL with K55C
modifications: Cys 55 conjugated with Molecule I (+20K)
notes: also called VL-55 K55 (+20K)
B14: anti-CD3 antibody mutant VH-D68C conjugated with Molecule I (+20K) (antibody, V domains shown)
VH: B1 VH with C61Y, D68C
VL: B1 VL
modifications: Cys 68 conjugated with Molecule I (+20K)
notes: also called VH-68 D68 (+20K)
B15: anti-CD3 antibody mutant VH-F112C conjugated with Molecule I (+20K) (antibody, V domains shown)
VH: B1 VH with C61Y, F112C
VL: B1 VL
modifications: Cys 112 conjugated with Molecule I (+20K)
notes: also called VH-112 F112 (+20K)
B16: anti-CD3 antibody mutant VL-Y34C conjugated with Molecule I (+20K) (antibody, V domains shown)
VH: B1 VH with C61Y
VL: B1 VL with Y34C
modifications: Cys 34 conjugated with Molecule I (+20K)
notes: also called VL-34 Y34 (+20K)
B17: anti-CD3 antibody mutant VL-Y94C conjugated with Molecule I (+20K) (antibody, V domains shown)
VH: B1 VH with C61Y
VL: B1 VL with Y94C
modifications: Cys 94 conjugated with Molecule I (+20K)
notes: also called VL-94 Y94 (+20K)
B18: anti-CD3 antibody mutant VH-F104C conjugated with Molecule I (+20K) (antibody, V domains shown)
VH: B1 VH with C61Y, F104C
VL: B1 VL
modifications: Cys 104 conjugated with Molecule I (+20K)
notes: also called VH-104 F104 (+20K)
B19: anti-CD3 antibody mutant VH-W111C conjugated with Molecule I (+20K) (antibody, V domains shown)
VH: B1 VH with C61Y, W111C
VL: B1 VL
modifications: Cys 111 conjugated with Molecule I (+20K)
notes: also called VH-111 W111 (+20K)
B20: anti-CD3 antibody mutant VL-R56C conjugated with Molecule I (+20K) (antibody, V domains shown)
VH: B1 VH with C61Y
VL: B1 VL with R56C
modifications: Cys 56 conjugated with Molecule I (+20K)
notes: also called VL-56 R56 (+20K)
B21: anti-CD3 antibody mutant VH-M34C conjugated with Molecule I (+20K) (antibody, V domains shown)
VH: B1 VH with M34C, C61Y
VL: B1 VL
modifications: Cys 34 conjugated with Molecule I (+20K)
notes: also called VH-34 M34 (+20K)
B22: anti-CD3 antibody mutant VH-S53C conjugated with Molecule I (+20K) (antibody, V domains shown)
VH: B1 VH with S53C, C61Y
VL: B1 VL
modifications: Cys 53 conjugated with Molecule I (+20K)
notes: also called VH-53 S53 (+20K)
B23: anti-CD3 antibody mutant VH-Y61C (antibody, V domains shown)
VH: B1 VH
VL: B1 VL
notes: Cys point mutant of the humanized anti-CD3 antibody; also called VH-61
B24: anti-CD3 antibody mutant VH-F104C (antibody, V domains shown)
VH: B1 VH with C61Y, F104C
VL: B1 VL
notes: Cys point mutant of the humanized anti-CD3 antibody; also called VH-104
B25: anti-CD3 antibody mutant VL-N54C (antibody, V domains shown)
VH: B1 VH with C61Y
VL: B1 VL with N54C
notes: Cys point mutant of the humanized anti-CD3 antibody; also called VL-54
B26: anti-CD3 antibody mutant VL-K55C (antibody, V domains shown)
VH: B1 VH with C61Y
VL: B1 VL with K55C
notes: Cys point mutant of the humanized anti-CD3 antibody; also called VL-55
B27: anti-CD3 antibody mutant VH-F112C (antibody, V domains shown)
VH: B1 VH with C61Y, F112C
VL: B1 VL
notes: Cys point mutant of the humanized anti-CD3 antibody; also called VH-112
B28: anti-CD3 antibody mutant VH-S53C (antibody, V domains shown)
VH: B1 VH with S53C, C61Y
VL: B1 VL
notes: Cys point mutant of the humanized anti-CD3 antibody; also called VH-53
B29: anti-CD3 antibody mutant VL-N96C (antibody, V domains shown)
VH: B1 VH with C61Y
VL: B1 VL with N96C
notes: Cys point mutant of the humanized anti-CD3 antibody; also called VL-96
B30: anti-CD3 antibody mutant VH-W111C (antibody, V domains shown)
VH: B1 VH with C61Y, W111C
VL: B1 VL
notes: Cys point mutant of the humanized anti-CD3 antibody; also called VH-111
B31: anti-CD3 antibody mutant VL-Y94C (antibody, V domains shown)
VH: B1 VH with C61Y
VL: B1 VL with Y94C
notes: Cys point mutant of the humanized anti-CD3 antibody; also called VL-94
B32: anti-CD3 antibody mutant VL-W93C (antibody, V domains shown)
VH: B1 VH with C61Y
VL: B1 VL with W93C
notes: Cys point mutant of the humanized anti-CD3 antibody; also called VL-93
B33: anti-CD3 antibody mutant VL-Y34C (antibody, V domains shown)
VH: B1 VH with C61Y
VL: B1 VL with Y34C
notes: Cys point mutant of the humanized anti-CD3 antibody; also called VL-34
B34: anti-CD3 antibody mutant VL-R56C (antibody, V domains shown)
VH: B1 VH with C61Y
VL: B1 VL with R56C
notes: Cys point mutant of the humanized anti-CD3 antibody; also called VL-56
B35: anti-CD3 antibody mutant VH-D68C (antibody, V domains shown)
VH: B1 VH with C61Y, D68C
VL: B1 VL
notes: Cys point mutant of the humanized anti-CD3 antibody; also called VH-68
B36: anti-CD3 antibody mutant VH-M34C (antibody, V domains shown)
VH: B1 VH with M34C, C61Y
VL: B1 VL
notes: Cys point mutant of the humanized anti-CD3 antibody; also called VH-34

Each binder was assayed against T1, CD3 (antigen of the anti-CD3 antibody, coated in the ELISA of Examples 1-3) (Homo sapiens (Human), UniProt P07766 23-126) (assay: binding activity after activation of the conjugate; method not described).
T1 construct: also called antibody antigen
T1 sequence (P07766 23-126 limits assumed, form in doubt): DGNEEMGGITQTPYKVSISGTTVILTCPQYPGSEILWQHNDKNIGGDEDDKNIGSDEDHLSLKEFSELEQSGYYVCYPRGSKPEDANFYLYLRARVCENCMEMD

**Q.** B1 was tested. Which “Recovery of binding force after activation (%)” value (from here on “Recovery of binding force … (%)”) did it give?
**A.** 100%

**Q.** How did the “Recovery of binding force … (%)” value turn out when B2 was run?
**A.** 100%

**Q.** For B3, which “Recovery of binding force … (%)” value is on record?
**A.** 100%

**Q.** Which “Recovery of binding force … (%)” value does the source give for B4 here?
**A.** 100%

What follows are binders tested against T1, CD3 (antigen of the anti-CD3 antibody, …) (assay: binding activity after conjugation with different R1; method not described (presumably ELISA)).

**Q.** Which “Blocking fold after conjugation” value does the source give for B5 here?
**A.** 400 fold

**Q.** B6 was tested. Which “Blocking fold after conjugation” value did it give?
**A.** 500 fold

**Q.** How did the “Blocking fold after conjugation” value turn out when B7 was run?
**A.** 20 fold

**Q.** With B8 as the binder, how does the “Blocking fold after conjugation” value read?
**A.** 10 fold

What follows are binders tested against T1, CD3 (antigen of the anti-CD3 antibody, …) (assay: binding activity of the conjugated mutant compared with the wild-type antibody (ELISA as in Example 1)).
Method: (§1) In the present invention, the activity of each mutant with a point mutation compared to that of its initial antibody is detected by ELISA. Specifically, the 96-well plates were coated with antibody antigen overnight, then blocked with 1% BSA blocking agent (Thermo Fisher) at 37° C. for 2 hours, and washed with PBST for 3 times. The corresponding antibody or the corresponding mutant was added for binding at 37° C. for 1 hour, and then washed with PBST for 3 times. HRP enzyme-linked anti-human IgG was added for binding at 37° C. for 1 hour, and washed with PBST for 3 times. TMB substrate (Solarbio., Inc.) was used to detect absorbance at 450 nm. The effect on mutant binding strength was calculated through EC50 mutation/EC50 wild-type.

**Q.** Which “Blocking fold after conjugation (+20K)” value does the source give for B9 here?
**A.** 400 fold

**Q.** For B10, which “Blocking fold after conjugation (+20K)” value is on record?
**A.** 5 fold

**Q.** With B11 as the binder, how does the “Blocking fold after conjugation (+20K)” value read?
**A.** 2 fold

**Q.** For B12, which “Blocking fold after conjugation (+20K)” value is on record?
**A.** 12 fold

**Q.** B13 was tested. Which “Blocking fold after conjugation (+20K)” value did it give?
**A.** 5 fold

**Q.** For B14, which “Blocking fold after conjugation (+20K)” value is on record?
**A.** 4 fold

**Q.** With B15 as the binder, how does the “Blocking fold after conjugation (+20K)” value read?
**A.** 4 fold

**Q.** Which “Blocking fold after conjugation (+20K)” value does the source give for B16 here?
**A.** 8 fold

**Q.** Which “Blocking fold after conjugation (+20K)” value does the source give for B17 here?
**A.** 30 fold

**Q.** For B18, which “Blocking fold after conjugation (+20K)” value is on record?
**A.** 13 fold

**Q.** Which “Blocking fold after conjugation (+20K)” value does the source give for B19 here?
**A.** 6 fold

**Q.** Which “Blocking fold after conjugation (+20K)” value does the source give for B20 here?
**A.** 6 fold

**Q.** How did the “Blocking fold after conjugation (+20K)” value turn out when B21 was run?
**A.** 5 fold

**Q.** With B22 as the binder, how does the “Blocking fold after conjugation (+20K)” value read?
**A.** 3 fold

These binders were tested against T1, CD3 (antigen of the anti-CD3 antibody, …) (assay: ELISA, coated antigen, anti-human IgG-HRP; reference wild-type antibody).
Method: as §1
According to the above method, the binding activity of anti-CD3 antibody SP34 mutant with mutations at different position shown in Table 1 was detected.

**Q.** With B23 as the binder, how does the “Binding strength of mutants (EC50 mutant/EC50 wild-type)” value (from here on “Binding strength of mutants”) read?
**A.** 5.1 fold

**Q.** For B24, which “Binding strength of mutants” value is on record?
**A.** 1 fold

**Q.** Which “Binding strength of mutants” value does the source give for B25 here?
**A.** 1 fold

**Q.** For B26, which “Binding strength of mutants” value is on record?
**A.** 0.9 fold

**Q.** How did the “Binding strength of mutants” value turn out when B27 was run?
**A.** 1.2 fold

**Q.** How did the “Binding strength of mutants” value turn out when B28 was run?
**A.** 1.2 fold

**Q.** How did the “Binding strength of mutants” value turn out when B29 was run?
**A.** 1 fold

**Q.** With B30 as the binder, how does the “Binding strength of mutants” value read?
**A.** 2 fold

**Q.** B31 was tested. Which “Binding strength of mutants” value did it give?
**A.** 1 fold

**Q.** How did the “Binding strength of mutants” value turn out when B32 was run?
**A.** 1.8 fold

**Q.** How did the “Binding strength of mutants” value turn out when B33 was run?
**A.** 1.2 fold

**Q.** Which “Binding strength of mutants” value does the source give for B34 here?
**A.** 1.5 fold

**Q.** Which “Binding strength of mutants” value does the source give for B35 here?
**A.** 2 fold

**Q.** With B36 as the binder, how does the “Binding strength of mutants” value read?
**A.** 1.1 fold

From patent US20260258127A1 (YING MAI DE MEDICAL TECHNOLOGY GUANGDONG, published 2026)
